Measurements reported in US20210332142A1 (Genentech, published 2021).

Legend:
[1] = target: T1, recombinant human Tie2 extracellular domain (human, UniProt Q02763 23-748); assay: SPR, IgG captured, 37C
T1 construct: whole entry named; also called Recombinant human Tie2 ECD; hu Tie2
Description: (§1) Antibodies were screened for binding to recombinant human and cyno Tie2 using a Biacore T200 instrument (GE Life Sciences). Briefly, a human antibody capture chip was generated using a Series S CM5 chip, a human antibody capture kit, and an amine coupling kit (GE Life Sciences). Antibodies diluted to 5 μg/ml were captured using a flow rate of 10 μl/minute and a contact time of 20 seconds. Binding of 300 nM and 1500 nM recombinant human and cyno Tie2 extracellular domain to the captured antibodies was analyzed at 37° C. using a single cycle kinetics method with a flow rate of 50 μl/minute, a contact time of 60 seconds and a dissociation time of 120 seconds. Between cycles, the chip was regenerated using 3M MgCl₂ injected for 30 seconds at 30 μl/minute. Data were evaluated using Biacore T200 Evaluation software (GE Life Sciences). Kinetic constants were obtained using a 1:1 binding model with the parameter RI set to zero. Selected antibodies (Table 7A-7B; ch denotes rabbit Abs; TEK denotes rat Abs) were taken forward for secondary activity screening in Fab-NDK format (see Example 8 below).

[2] = target: T2, recombinant cyno Tie2 extracellular domain (cynomolgus monkey, UniProt Q02763 23-748 (human entry)); assay: SPR, IgG captured, 37C
T2 construct: also called Recombinant cyno Tie2 ECD; cy Tie2
T2 chain: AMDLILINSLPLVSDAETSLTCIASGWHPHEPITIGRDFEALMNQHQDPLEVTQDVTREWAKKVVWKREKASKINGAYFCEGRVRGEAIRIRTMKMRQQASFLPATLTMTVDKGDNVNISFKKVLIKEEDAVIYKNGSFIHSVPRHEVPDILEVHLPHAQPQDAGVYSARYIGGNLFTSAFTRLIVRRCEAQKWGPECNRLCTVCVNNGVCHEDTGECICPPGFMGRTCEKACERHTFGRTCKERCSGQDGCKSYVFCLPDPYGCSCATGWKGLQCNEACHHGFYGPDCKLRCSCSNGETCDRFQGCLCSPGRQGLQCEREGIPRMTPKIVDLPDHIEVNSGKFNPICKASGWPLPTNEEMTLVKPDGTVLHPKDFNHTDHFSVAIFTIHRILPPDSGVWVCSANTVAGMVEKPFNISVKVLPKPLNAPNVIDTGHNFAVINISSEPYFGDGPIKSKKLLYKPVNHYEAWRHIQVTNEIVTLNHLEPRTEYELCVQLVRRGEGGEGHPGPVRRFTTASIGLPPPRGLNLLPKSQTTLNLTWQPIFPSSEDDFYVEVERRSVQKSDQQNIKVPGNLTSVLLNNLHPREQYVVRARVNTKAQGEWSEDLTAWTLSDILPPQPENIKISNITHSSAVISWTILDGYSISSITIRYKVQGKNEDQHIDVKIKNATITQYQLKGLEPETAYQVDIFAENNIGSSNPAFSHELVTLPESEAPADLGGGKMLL
Description: as §1

[3] = target: T3, human Tie2ECD.flag (human, UniProt Q02763 23-748); assay: Biacore, hIgG captured, 25C
T3 construct: also called hTie2.flag; not shown: C-terminal Flag tag
T3 sequence (Q02763 23-748 limits assumed): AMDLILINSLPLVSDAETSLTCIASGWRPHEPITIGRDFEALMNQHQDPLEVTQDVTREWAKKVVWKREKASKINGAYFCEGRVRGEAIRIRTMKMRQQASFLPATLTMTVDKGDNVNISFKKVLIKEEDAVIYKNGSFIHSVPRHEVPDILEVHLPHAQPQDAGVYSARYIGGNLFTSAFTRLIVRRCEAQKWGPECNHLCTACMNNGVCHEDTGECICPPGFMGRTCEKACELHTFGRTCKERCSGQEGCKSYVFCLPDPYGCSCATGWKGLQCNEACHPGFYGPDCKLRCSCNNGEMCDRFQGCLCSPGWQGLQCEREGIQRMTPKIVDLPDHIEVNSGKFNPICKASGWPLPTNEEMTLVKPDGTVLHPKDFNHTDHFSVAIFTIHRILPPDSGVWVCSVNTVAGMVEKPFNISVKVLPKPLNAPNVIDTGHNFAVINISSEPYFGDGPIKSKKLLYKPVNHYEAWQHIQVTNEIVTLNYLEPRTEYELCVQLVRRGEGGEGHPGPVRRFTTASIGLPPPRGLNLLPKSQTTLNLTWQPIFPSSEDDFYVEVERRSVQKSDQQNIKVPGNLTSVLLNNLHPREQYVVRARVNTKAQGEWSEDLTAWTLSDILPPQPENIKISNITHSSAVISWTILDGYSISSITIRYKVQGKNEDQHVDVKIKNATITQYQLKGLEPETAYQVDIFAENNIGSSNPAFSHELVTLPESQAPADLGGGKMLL
Description: (§2) Monovalent affinities of selected anti-Tie2 hIgGs were determined using a Biacore T200 instrument (GE Life Sciences). Anti-humanFc was covalently immobilized on a Series S CM5 Biacore sensor chip to enable non-covalent capture of anti-Tie2 antibodies and binding of human or rat Tie2ECD.flag was monitored in real time at 25° C. using a multi-cycle kinetics experiment format. Between cycles, the surface was regenerated with 3 M MgCl₂. Monovalent affinities were determined by kinetic analysis, using Biacore Evaluation Software (GE Life Sciences) to fit a 1:1 binding model to the data.

[4] = target: T4, rat Tie2ECD.flag (rat, UniProt A0ABK0L6J5 19-740); assay: Biacore, hIgG captured, 25C
T4 construct: extracellular domain; also called rTie2.flag; not shown: C-terminal Flag tag
Description: as §2

[5] = target: T1, recombinant human Tie2 extracellular …; assay: SPR multi-cycle kinetics, IgG captured, kinetic analysis
Description: Binding to 300 nM and 1500 nM recombinant Tie2 was analyzed at 37° C. using a Single Cycle Kinetics method with a contact time of 60 seconds, a dissociation time of 120 seconds and a flow rate of 50 μl/min. Between cycles, the surface was regenerated by a 30 second injection of 3M MgCl₂ at a flow rate of 30 μl/min. Values for antibody capture levels and analyte binding levels were obtained from the Report Point Table (Biacore Evaluation Software v3.0, GE Life Sciences). […] Table 16: Experiment A; Table 17: Experiment B.
(§3) Binding to recombinant human and cyno Tie2 was analyzed using a high performance multi-cycle kinetics format with a contact time of 60 seconds, a dissociation time of 60 seconds, a flow rate of 100 μl/minute and Tie2 concentrations of 5 μM, 2.5 μM, 1.25 μM, 625 nM, 313 nM and 156 nM. Tie2 concentrations of 5 μM, 2.5 μM and 1.25 μM were injected twice. Results were analyzed using Biacore T200 Evaluation Software v3.0 (GE Life Sciences). Results from all three surface densities were analyzed together using the 1:1 Binding model with multiple Rmax and the RI parameter set to zero.

[6] = target: T2, recombinant cyno Tie2 extracellular …; assay: as above
Description: as §3

[7] = target: T2, recombinant cyno Tie2 extracellular …; assay: SPR multi-cycle kinetics, IgG captured, kinetic analysis; cyno Tie2; kinetic analysis
Description: as §3

[8] = target: T1, recombinant human Tie2 extracellular …; assay: SPR multi-cycle kinetics, IgG captured, kinetic analysis; human Tie2; kinetic analysis
Description: as §3

B1: Tie2.1 (antibody, human IgG1, V domains shown)
VH: EVQLVESGGGLVQPGGSLRLSCAASGFTFSNTDISWVRQAPGKGLEWVGRISPSDGNTYYADSVKGRFTISADTSKNTAYLQMNSLRAEDTAVYYCARRTRWASWAMDYWGQGTLVTVSS
VL: DIQMTQSPSSLSASVGDRVTITCRASQDVSTAVAWYQQKPGKAPKLLIYSASFLYSGVPSRFSGSGSGTDFTLTISSLQPEDFATYYCQQSYTTPPTFGQGTKVEIKR
notes: human IgG1 in all later assays; also called Ab1; Tie2.1.M100c
A Kd [1] of 3000 nM, a koff [1] of 0.3 s⁻¹ and a kon [1] of 100000 M⁻¹ s⁻¹ were found for B1 in this work. It also gave a Kd [2] of 4000 nM, a koff [2] of 0.3 s⁻¹ and a kon [2] of 90000 M⁻¹ s⁻¹. The Kd [3] was 1200 nM, the Kd [4] was 1600 nM and the koff [5] was 0.45 s⁻¹. For the same binder, the kon [5] was 180000 M⁻¹ s⁻¹, the koff [6] was 0.44 s⁻¹ and the kon [6] was 150000 M⁻¹ s⁻¹. The Kd [7] was 3000 nM and the Kd [8] was 3000 nM.
